Results published in publication PMC9684126.

Tested on: Smc5/6 holo-complex, Cy3-labelled (8 subunits) (Saccharomyces cerevisiae (expressed in W303-1a))
Assay: single-molecule optical tweezers with confocal fluorescence, lifetime
Details: biotin at the two ends, Single-molecule buffer not given in the material (20 nM Cy3-Smc5/6 and 2 mM ATP in Fig. 6b; ~5 or ~60 pN), entrapment: 10 mM HEPES-KOH pH 7.5, 150 mM KAc

| Substance | binding signal (5 nM Smc5/6 then buffer only, high force) [s] | binding signal [s] |
| --- | --- | --- |
| lambda DNA tether, ss-dsDNA junctions at high force (~60 pN) | > 290 | – |
| lambda DNA tether, dsDNA (low force ~5 pN, or dsDNA regions at high force) | – | 76 |
